Substitutions are numbered along the chain they refer to.
Key:
Zip4S = tested on: T1, Zip4S
T1 sequence: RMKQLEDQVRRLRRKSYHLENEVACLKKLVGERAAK

Zip 1 = tested on: T2, Zip 1
T2 sequence: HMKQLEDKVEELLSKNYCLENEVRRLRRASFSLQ

Zip 2 = tested on: T3, Zip 2
T3 sequence: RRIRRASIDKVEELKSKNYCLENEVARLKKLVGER

Zip4T = tested on: T4, Zip4T
T4 sequence: T1 sequence with S16T

[1] = biological target: the molecule itself; assay: circular dichroism thermal denaturation (self-association of unmodified Zip4S is implied)
Procedure: The circular dichroism (measured in units of ellipticity) of proteins at 222 nm provides a measure of the amount of α-helix present in the structure, with a large, negative ellipticity indicting a high level of helicity. […] In all experiments described herein, peptide concentration was determined by tyrosine absorbance at 280 nm in 6M GuHCl.

With “Ca2+/Calmodulin-dependent Protein Kinase (CaMKII)” as the molecule, how does the “timecourse of phosphorylation (32P incorporation)” value (Zip4S) read?
The value was “CaMKII was unable to phosphorylate Zip4S”.

Which “phosphorylation by reverse-phase HPLC and radioactive assay” value (Zip 1) does the source give for protein kinase A (PKA) here?
Its value is “The peptides were both shown to be good substrates for PKA by reverse-phase HPLC and radioactive assay”.

What about the “phosphorylation by reverse-phase HPLC and radioactive assay” value (Zip 2) of the same molecule?
Its value is “The peptides were both shown to be good substrates for PKA by reverse-phase HPLC and radioactive assay”.

And the “timecourse of phosphorylation (32P incorporation)” value (Zip4T)?
Its value is “Zip4T is also phosphorylated, but at a slower rate, with full phosphorylation achieved in 30 minutes in this assay”.

Does RMKQLEDQVRRLRRKSYHLENEVACLKKLVGERAAK (GCN4 numbering)) [Zip4S] bind [1]?
Result: binds

— US20060148017A1 (published 2006)
